Experimental data published in article PMC11848828.

What was measured:
[1] = molecular target: Human 14-3-3ζ protein (human) (UniProt P63104); experiment: ITC
[2] = molecular target: Human 14-3-3ζ protein (human) (UniProt P63104); experiment: real-time 1D 1H NMR

UniProt P63104, sequence (P63104 whole entry): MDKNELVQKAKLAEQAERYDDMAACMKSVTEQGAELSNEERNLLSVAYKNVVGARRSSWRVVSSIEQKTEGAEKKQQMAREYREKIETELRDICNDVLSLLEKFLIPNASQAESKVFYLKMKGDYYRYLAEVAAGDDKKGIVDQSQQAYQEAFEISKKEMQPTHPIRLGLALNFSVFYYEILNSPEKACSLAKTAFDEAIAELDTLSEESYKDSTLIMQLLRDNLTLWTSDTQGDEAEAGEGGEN

Substance	Kd [1]	dH [1]	other results
PRLR P393V variant peptide	28 µM	-3.08 kcal/mol	
PRLR W392A variant peptide	4 µM	-8.17 kcal/mol	
PRLR W392L variant peptide	13 µM		
PRLR W392Y variant peptide		-4.88 kcal/mol	Kd, two-sets-of-sites model, first set [1]: 0.4 µM; Kd, two-sets-of-sites model, second set [1]: 2.3 µM; dH of the cis proline isomer [1]: -4.64 kcal/mol; dH of the trans proline isomer [1]: -5.4 kcal/mol
PRLR WT peptide (21-residue phosphorylated fragment of the human prolactin receptor intracellular domain, pThr391)		-5.62 kcal/mol	concentration of the cis isomer bound instantly (t0) [2]: 101 µM
